Assay in all cases: fluorescence polarisation; 25 °C; unlabeled Rb^P titrated against 1.5 nM TMR-E2F1^TD or 7.5 nM TMR-E7^LxCxE; 25 mM Tris pH 8.0, 200 mM NaCl, 1 mM DTT, 0.1% Tween-20; 2 min incubation; quadratic fit; apparent Kd for the variants, Kd for WT
Holding throughout (conditions): both partners purified
A general note: In fluorescence polarisation assays a small probe gives low polarisation when free and higher when bound to something large.

The target of one test is T1, Rb^P S474I (human, UniProt P06400 380-788, S474I).
T1 construct: also called variant 11
T1 sequence (looked up): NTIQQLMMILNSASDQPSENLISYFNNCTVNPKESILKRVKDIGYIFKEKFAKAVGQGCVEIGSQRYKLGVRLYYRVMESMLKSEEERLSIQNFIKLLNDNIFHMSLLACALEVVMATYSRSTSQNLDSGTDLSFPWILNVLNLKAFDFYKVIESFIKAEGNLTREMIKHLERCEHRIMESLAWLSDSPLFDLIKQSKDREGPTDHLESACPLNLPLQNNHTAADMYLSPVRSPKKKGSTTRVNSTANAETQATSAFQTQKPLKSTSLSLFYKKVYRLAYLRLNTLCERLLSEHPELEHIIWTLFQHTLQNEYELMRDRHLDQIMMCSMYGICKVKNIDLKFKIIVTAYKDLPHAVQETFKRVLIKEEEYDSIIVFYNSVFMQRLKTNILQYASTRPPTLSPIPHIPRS

In another test the target is T2, Rb^P R668H (human, UniProt P06400 380-788, R668H).
T2 construct: also called variant 52
T2 sequence (looked up): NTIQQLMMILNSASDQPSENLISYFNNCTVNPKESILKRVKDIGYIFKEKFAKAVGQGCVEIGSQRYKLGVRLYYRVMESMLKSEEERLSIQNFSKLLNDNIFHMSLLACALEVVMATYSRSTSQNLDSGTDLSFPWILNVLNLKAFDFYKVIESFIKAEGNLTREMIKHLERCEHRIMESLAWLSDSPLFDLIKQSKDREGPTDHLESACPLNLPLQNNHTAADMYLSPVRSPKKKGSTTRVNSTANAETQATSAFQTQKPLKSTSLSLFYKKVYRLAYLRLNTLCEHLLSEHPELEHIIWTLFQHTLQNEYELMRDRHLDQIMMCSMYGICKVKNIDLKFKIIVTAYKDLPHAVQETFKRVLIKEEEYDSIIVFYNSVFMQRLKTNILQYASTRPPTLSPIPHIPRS

A further test addresses T3, Rb^P E492Q (human, UniProt P06400 380-788, E492Q).
T3 construct: also called variant 18
T3 sequence (looked up): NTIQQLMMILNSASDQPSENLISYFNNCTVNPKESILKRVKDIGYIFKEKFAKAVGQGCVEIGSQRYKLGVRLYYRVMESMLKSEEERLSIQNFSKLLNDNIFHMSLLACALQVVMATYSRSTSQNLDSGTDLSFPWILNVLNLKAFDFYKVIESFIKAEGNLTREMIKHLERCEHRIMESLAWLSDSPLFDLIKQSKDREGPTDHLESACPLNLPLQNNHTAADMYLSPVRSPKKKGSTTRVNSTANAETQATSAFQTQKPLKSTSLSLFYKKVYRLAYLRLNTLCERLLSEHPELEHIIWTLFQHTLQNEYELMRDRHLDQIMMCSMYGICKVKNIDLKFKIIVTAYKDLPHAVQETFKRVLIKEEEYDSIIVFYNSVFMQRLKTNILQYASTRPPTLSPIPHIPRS

The target in the next test is T4, Rb^P S751C (human, UniProt P06400 380-788, S751C).
T4 construct: also called variant 71
T4 sequence (looked up): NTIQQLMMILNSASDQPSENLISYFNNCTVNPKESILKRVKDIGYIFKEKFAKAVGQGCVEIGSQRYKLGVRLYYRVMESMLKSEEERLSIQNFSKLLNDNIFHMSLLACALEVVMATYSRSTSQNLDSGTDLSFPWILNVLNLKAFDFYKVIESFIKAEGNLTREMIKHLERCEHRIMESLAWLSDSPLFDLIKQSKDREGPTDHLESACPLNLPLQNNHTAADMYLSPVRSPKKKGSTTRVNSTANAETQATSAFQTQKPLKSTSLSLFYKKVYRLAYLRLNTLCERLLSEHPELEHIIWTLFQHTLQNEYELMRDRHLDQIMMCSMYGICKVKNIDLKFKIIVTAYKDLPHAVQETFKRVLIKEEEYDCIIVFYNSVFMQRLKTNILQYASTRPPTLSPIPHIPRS

For a further test, the target named is T5, Rb^P A490T (human, UniProt P06400 380-788, A490T).
T5 construct: also called variant 16
T5 sequence (looked up): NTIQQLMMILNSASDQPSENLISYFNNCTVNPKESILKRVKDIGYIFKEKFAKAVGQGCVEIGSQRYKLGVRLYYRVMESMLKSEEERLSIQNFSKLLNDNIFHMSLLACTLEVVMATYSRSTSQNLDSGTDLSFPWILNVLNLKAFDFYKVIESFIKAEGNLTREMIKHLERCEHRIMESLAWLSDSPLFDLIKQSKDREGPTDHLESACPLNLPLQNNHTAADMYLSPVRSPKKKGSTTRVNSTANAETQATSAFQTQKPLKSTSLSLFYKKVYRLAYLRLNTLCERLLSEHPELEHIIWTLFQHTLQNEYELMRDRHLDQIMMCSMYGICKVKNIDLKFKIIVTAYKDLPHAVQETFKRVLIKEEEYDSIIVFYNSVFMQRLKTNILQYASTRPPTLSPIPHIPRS

No end group written: not given here. TMR = tetramethyl rhodamine dye

Among the data in paper PMC11931385, “Structural and functional analysis of cancer-associated missense variants in the retinoblastoma protein pocket domain” (The Journal of Biological Chemistry, 2025) are Kd values, retold here.

B1: TMR-E2F1^TD, peptide of the E2F1 transactivation domain (peptide)
peptide: {TMR}-GEGIRDLFDCDFGDLTPLD
notes: also called E2F^TD; source: synthetic peptide, bought: GenScript
For the molecule B1, the Kd in the test with Rb^P S474I was 364 nM; in the test with Rb^P R668H, 13 nM; with Rb^P E492Q, 22 nM; with Rb^P S751C it was 66 nM; in the test with Rb^P A490T, 59 nM.

B2: TMR-E7^LxCxE, LxCxE peptide of the E7 oncoprotein from HPV (peptide)
peptide: DLYCYEQLN
modifications: also: TMR label, position not given here
notes: source: synthetic peptide, bought: GenScript
Consider B2, for which the Kd in the test with Rb^P S474I worked out at 7 nM; with Rb^P R668H, 7 nM; with Rb^P E492Q, 14 nM; with Rb^P S751C, 44 nM; with Rb^P A490T, 13 nM.
